{"source": "the DeepSol protein solubility set"}
{"assay": "soluble on expression in E. coli; label from the status in PepcDB or PDB records"}
{"sequence": "MSLTGQLHPAVRVADLLQHINQMKTAEGYGFKQEYESFFEGWDATKKKDKVKGSRQEPMPAYDRHRVKLHPMLGDPNADYINANYIDGYHRSNHFIATQGPKPEMVYDFWRMVWQEHCSSIVMITKLVEVGRVKCSRYWPEDSDTYGDIKIMLVKTETLAEYVVRTFALERRGYSARHEVRQFHFTAWPEHGVPYHATGLLAFIRRVKASTPPDAGPIVIHCSAGTGRTGCYIVLDVMLDMAECEGVVDIYNCVKTLCSRRVNMIQTEEQYIFIHDAILEACLCGETTIPVSEFKATYKEMIRIDPQSNSSQLREEFQTLNSVTPPLDVEECSIALLPRNRDKNRSMDVLPPDRCLPFLISTDGDSNNYINAALTDSYTRSAAFIVTLHPLQSTTPDFWRLVYDYGCTSIVMLNQLNQSNSAWPCLQYWPEPGRQQYGLMEVEFMSGTADEDLVARVFRVQNISRLQEGHLLVRHFQFLRWSAYRDTPDSKKAFLHLLAEVDKWQAESGDGRTIVHCLNGGGRSGTFCACATVLEMIRCHNLVDVFFAAKTLRNYKPNMVETMDQYHFCYDVALEYLEGLESREGHHHHHH", "soluble on expression in E. coli": "soluble"}
{"sequence": "MGSDKIHHHHHHMGGKWMRWMAPAPPASNVPKCSCHRLLGKEPPNDSKDCRPGSLTGRALFSDVPRGMAKDVFQVHCVSATGRRVINKKIKRAKLLAFLETLPRCVVGMEACGSAHHWGGELRKLGHDVRLMPAAYVKLYVKRGKTDAADAEAICEAVRRQSMRFVEIESEDQQAVLAIHSARDLVVRQRTQVVNMIRSILREFGHILPTGIEAVSKFAREHGTEDQLDMPEIADGILGVMCHQLNGLNARVDGLTKLIEQHAWLDADARRLMRMPGIGPITASAIVATIGDAKQFETGRDLATWLGLTPLNKSSGGKERLGRIIKKGDRYIRKLLIIGMTSRSLMAKNKPEKADTWTAKLPDEQPFRLATVAMANKSARIIWALLTKREEYRQPIV", "soluble on expression in E. coli": "not soluble"}
{"sequence": "MSLSDLDRAIAQLRACRLIPEAQVRELCYKARELLIEEGNVVCVDAPVTICGDIHGQFHDLMELFRVGGDVPDTNYLFMGDFVDRGFYSLESEGHHHHHH", "soluble on expression in E. coli": "not soluble"}
{"sequence": "MSLRKLYTKELSVTGSAINHHRIFDSSAHFKGALTIKILPENTAMFNPLHESYCLPMDTNLFKINSIDVPIRINSTEEIEYIELEYRDLYTNSVELRSLSKKDFKIIDNPKSFLKKDQSVLKSHSNDFEEGSTIRYLAVTLQDIGFYQIKKIVDSKKLNLKIHQSHLVVPYCPIASITGTGSNDRCIGDSDNVSFEIQGVPPMKLAYSKIVNGQTFSYVDSSLQPEYFESPLQSSKSKQSFTQGELNDLKWGRNQPVNINLDSSITQDGKFAYKIDKITDGLGNVVDFTSLPEELKKREGHHHHHH", "soluble on expression in E. coli": "soluble"}
{"sequence": "MATLKDIAIEAGVSLATVSRVLNDDPTLNVKEETKHRILEIAEKLEYKTSSARKLQTGAVNQHHILAIYSYQQELEINDPYYLAIRHGIETQCEKLGIELTNCYEHSGLPDIKNVTGILIVGKPTPALRAAASALTDNICFIDFHEPGSGYDAVDIDLARISKEIIDFYINQGVNRIGFIGGEDEPGKADIREVAFAEYGRLKQVVREEDIWRGGFSSSSGYELAKQMLAREDYPKALFVASDSIAIGVLRAIHERGLNIPQDISLISVNDIPTARFTFPPLSTVRIHSEMMGSQGVNLVYEKARDGRALPLLVFVPSKLKLRGTTR", "soluble on expression in E. coli": "soluble"}
{"sequence": "MCLGIPARVVEVLDGPLPMAVVDMAGEQRPCSVMYVPEVQVGQFVLLQNGYAMEVLDEKSAQESLATIAEFNLVQQVQLAPREPR", "soluble on expression in E. coli": "not soluble"}
{"sequence": "MSQFGGGKPPGQWHRPAAPGGAPQLSGFSAVNFGGVPMVGMGVPMGMVNQAAFSSQGVLGMQGIMGAVPQQSLPQQQPNFQQQNSLQQGTNMQQNSGAKNQRTFVGVVTKMLDTYGFVDDDVFFQHSVIRGSHPRVGDKVMVEANYNPSMPFKWNAYRIQLLNAATQQEPARQAPQQQQMHQPQRGGQESQRWGAAPASGTSDRADRNGGARGNDSPLHRSSAARRHSPPPRRASPPRRTSSPKRDARPAREIRDSREPREVRRSPPPRRAASPRKASSPSAPAKNDRKRERSPSGSVAPSVRRESASPPRRRARIIPRYECRAQKPALLSPIVSGSVLRHRYSKLYLPSDYVDLSFDWVRSFQLDLSLDLSNPIQFHVFNKDVDFIGEEEIQDLDPEDADHRHQVKVLLLSHAGKSEVVKKAFCLMADGTTDDHQEPQSLLKNLHFLVGARGKETMGIGGSWSPSQDGADPNSATTMIRTAVRTTKSLTGIDLSSVSQWFSMVQIRYYRADKQRIDHVNYLLPDTQSLALDDAQWMLAETKIAEQLKAKLANVDALKIEEDEPPVVMMVEESESVVAAAAAAADVVPEQSIPDVKKEEELQAEEPKVLDNVKESIVLLWAEESDVVADVSMNSTTDADNSEAPAAENGQGPTNWSNLDPKSMKVAELRVELELRGLETKGIKTLLVQRLQTALDTEKAAEASVAARDVEMRDAAENAVKQEGGEENPAAFIAPSIEETKAKTEAEAKKEAEEAEKRKKKEEQLEKEKKEKREALEKHYQLPKDKKILVFPSKSFKSGKFDCKVLSLSSLLDYRHDDNKENQFEVSLFAEAFKEMIERNAAFTIYETLANCGDRDAEKKRRDEAREKPVEPKEPKEPAETTEKAAEGEEKKDEKEEKRDEKKDEKREEKREKVERIDLKSVVANRTVYEAFSLFDSNLCGYLTEKDIEEILYNGEFGISRGQIQKLAKKLSVRDKINYRHLTDVLTDMDGNVRHTPGGADDVVETDDLIRGFGYNLAKSMEPADSGAAVKSSEVSASSDGVVIINGSAVNVVQKMKLLKQVEKERDEAKSTVSEQLSLIEQLREAKAEIDKKKKDIDSHYHKSNKKLNETSAQLKSTQDENSALKQALQDCKRHADRIFSVVEKVMPPPPKKEEKSKKDEKEKTDKKDDKVSEKSAEKSTEEPSQEVPASAEQAAEPSTEAEPIVIDESEDKDAEVVEESKE", "soluble on expression in E. coli": "not soluble"}
{"sequence": "MLIPAQENNVSLTATPSRIGQIMKYGFPGLDHVRSHSDYVLSYDRRNRVPHWVFEHLTAESVAKNDAVDRSKCDFKQDESIHPFFRSQNTDYRRSGYDRGHMAAAGNHRLHQKHCDETFYLSNMAPQVGQGFNRDAWNTLEAHVRRLTKTYSNVYVCTGPLYLPHKEDDGKSYVKYEVIGANTVAVPTHFYKVIVGESADHKLHMESYVMPNQVISNDTPISVFQVPPESVERSAGLLFFDQINRKQLTTINGKKVAAALEHHHHHH", "soluble on expression in E. coli": "soluble"}
{"sequence": "MGSDKIHHHHHHMDAMKYNDLRDFLTLLEQQGELKRITLPVDPHLEITEIADRTLRAGGPALLFENPKGYSMPVLCNLFGTPKRVAMGMGQEDVSALREVGKLLAFLKEPEPPKGFRDLFDKLPQFKQVLNMPTKRLRGAPCQQKIVSGDDVDLNRIPIMTCWPEDAAPLITWGLTVTRGPHKERQNLGIYRQQLIGKNKLIMRWLSHRGGALDYQEWCAAHPGERFPVSVALGADPATILGAVTPVPDTLSEYAFAGLLRGTKTEVVKCISNDLEVPASAEIVLEGYIEQGETAPEGPYGDHTGYYNEVDSFPVFTVTHITQREDAIYHSTYTGRPPDEPAVLGVALNEVFVPILQKQFPEIVDFYLPPEGCSYRLAVVTIKKQYAGHAKRVMMGVWSFLRQFMYTKFVIVCDDDVNARDWNDVIWAITTRMDPARDTVLVENTPIDYLDFASPVSGLGSKMGLDATNKWPGETQREWGRPIKKDPDVVAHIDAIWDELAIFNNGKSA", "soluble on expression in E. coli": "not soluble"}
{"sequence": "NEIVSGKLRIAASASFGAALLSQTLIEFRLQHPQVSVEVIFTEAPLDLIEAGFDIAFYFTDTPPEGYVGHQLRTLHCKPIAHRSYLADKPNVSTPEDLGDLEHILYKSRDLVLDKWTFTHKQTQQQCRIELESTLSFNLVQSMLDATLAGCGVAMLDEFALAKLESAQKEQLVSLLPDWQTDAILPLYLLYPKREHLPRRTRAFIDHFRNIYSVGE", "soluble on expression in E. coli": "not soluble"}
{"sequence": "SAKFVIAGRADCPYYAKTELVADYLQKNLPDFRIHKITQRPEVWEDWLKDVCEKNKWSHKNSPIIWRELLDRGGKGLLLGGYNEFLEHAQLYYDVTSSMTTELMMVIAQENLGAHIEKEQEEEALKTCINPLQVWITSEWVKREFVAILKNLTTTGRQFGGILAAHSIATTLKYWYHGSPPGEIVSLGILSEGQFGIPKGIVFSMPVKFENGTWVVLTDLKDVEISEQIMTRMTSDLIQEKLVALGDKIHFQPYQSDTPRTNTLHPSIQSSWHSVLTITIRKR", "soluble on expression in E. coli": "soluble"}
{"sequence": "MSFDGFFLHHMTAELREQVLYGRIQKVNQPFERELVLTIRNNRQNYKLLLSAHPVFGRIQTTKAELPNPQNPNTYTMIMRKYLQGAVIEDIQQLENDRVLEISVSNKNEIGDSVKVTLVMEIMGKHSNIILIDKNENKIIESIKHVGFSQNSYRTILPGSTYIAPPKTDARNPFDISDENLFELLQTEDLSAKNLQKLFQGLGRDTANELSALLETDKLKNFRDFFNREVEPNLTTKAFSAVRFSDSQDQPEFETLSELLDYYYLDKAARDRVAQQASDLIHRVQNELEKNKKKLVKQEKELAATENAEEFRQKGELLTTFLSMVPNDKDSVELDNYYTGEKITIPLNVALTPNQNAQRYFKKYQKLKEAVKHLTGLIEETKQTINYLESVEFSLSQANMDEIEDIREELVQAGFMRRRSTDKRQKRKK", "soluble on expression in E. coli": "not soluble"}
{"sequence": "SAAHQMDSITYSNNVTQQYIQPQSLQDISAVEDEIQNKIEAARQESKQLHAQINKAKHKIQDASLFQMANKVTSLTKNKINLKPNIVLKGHNNKISDFRWSRDSKRILSASQDGFMLIWDSASGLKQNAIPLDSQWVLSCAISPSSTLVASAGLNNNCTIYRVSKENRVAQNVASIFKGHTCYISDIEFTDNAHILTASGDMTCALWDIPKAKRVREYSDHLGDVLALAIPEEPNSENSSNTFASCGSDGYTYIWDSRSPSAVQSFYVNDSDINALRFFKDGMSIVAGSDNGAINMYDLRSDCSIATFSLFRGYEERTPTPTYMAANMEYNTAQSPQTLKSTSSSYLDNQGVVSLDFSASGRLMYSCYTDIGCVVWDVLKGEIVGKLEGHGGRVTGVRSSPDGLAVCTGSWDSTMKIWSPGYQ", "soluble on expression in E. coli": "not soluble"}
{"sequence": "MNPERQETISPKNVPFQPVPTPNQQSLQSRMLESNQAVPDAFQKVAAWNHYNAVATPPIGVPQTARPPSNQSPHPNPPGYPYQSHQQQFHPLAIAFQQPFGLPQQVIYPPPPPGFTPHRVQVSPVGLLGPPGFFPQFAGSTTSQGNPSEVSVRTKSAEGTTGPIAPSITTKPTSTIQVAPPRDPVAPTTSSSGITKKPENGEFSLVKTISGHTKSVSVIKFSYCGKYLGTGSADKQIKVWNTVDMTYLQTLASHQLGINDFSWSSNSQFIASASDDTTVKIFDVISGACLRTMRGHTNYVFCCSFNPQSSLIASAGFDETVRVWDFKTGLCVKCIPAHSDPITSISYNHDGNTMATSSYDGCIRVWDAASGSCLKTLVDTDHAPVTFVCFSPNGKYLLSAQLDSSLKLWDPKKAKPLKYYNGHKNKKYCLFANMSVPLGKHIISGSEDGRILVWSIQTKQIVQILEGHTTPVLATDSHPTLNIIASGGLEPDNVIRIWRRN", "soluble on expression in E. coli": "not soluble"}
{"sequence": "MAGDPMLKGRQTWEFENRPVILSSAATAGPFEANGPLADDFDILFEDMWLGEDSFEKAQKVLIEEAAKTAIEKAGIQNDDIQFVFAGDLLNQMTSTSFACRSLCIPYFGLFGACSTSMEGLALAAFVINHSGANYVLTGSTSHNAAIEKQFRYPTEYGAQKPPTAQWTATAAGVGVVAKVGSGPVVTSATIGKVVDMGLSDPFNMGEAMAPAAADTIEMHFQERGVGPDYYDLIATGDLGKIGLPIVKEMLEQKGYSFNDGQLNDCGLMIYRDGQPVLAGGSGSGCSASVTYGHLLNRMKKGEINRMLIVATGALLSPMSYQQNETIPCIAHAVSIEAGGALALEHHHHHH", "soluble on expression in E. coli": "not soluble"}
{"sequence": "MPKPSVGINGFGRIGRLVLRAAVEKDSVNVVAVNDPFISIDYMVYLFQYDSTHGRFKGTVAHEGDYLLVAKEGKSQHKIKVYNSRDPAEIQWGASGADYVVESTGVFTTIEKANAHLKGGAKKVIISAPSADAPMFVVGVNHEKYDHANDHIISNASCTTNCLAPLAKVINDNFGIIEGLMTTVHAVTATQKTVDGPSGKLWRDGRGAGQNIIPASTGAAKAVGKVIPELNGKLTGMAFRVPTPDVSVVDLTARLEKPASLDDIKKVIKAAADGPMKGILAYTEDQVVSTDFVSDTNSSIFDAGASISLNPHFVKLVSWYDNEFGYSNRVVDLISYIATKA", "soluble on expression in E. coli": "not soluble"}
